According to the DeepSol protein solubility set:

experiment: soluble on expression in E. coli; label from the status in PepcDB or PDB records

Row | Sequence | soluble on expression in E. coli
1 | MPYRNCWSKIMKKLINDVQDVLDEQLAGLAKAHPSLTLHQDPVYVTRADAPVAGKVALLSGGGSGHEPMHCGYIGQGMLSGACPGEIFTSPTPDKIFECAMQVDGGEGVLLIIKNYTGDILNFETATELLHDSGVKVTTVVIDDDVAVKDSLYTAGRRGVANTVLIEKLVGAAAERGDSLDACAELGRKLNNQGHSIGIALGACTVPAAGKPSFTLADNEMEFGVGIHGEPGIDRRPFSSLDQTVDEMFDTLLVNGSYHRTLRFWDYQQGSWQEEQQTKQPLQSGDRVIALVNNLGATPLSELYGVYNRLTTRCQQAGLTIERNLIGAYCTSLDMTGFSITLLKVDDETLALWDAPVHTPALNWGK | soluble
2 | MSSSEGNSDASAPGTPVKSSTPSSRGSSPDSPKKQEPSKKRAILNESDDDDDSRPAPRQLSDSSDDNIHPRGGGEKSSPGAGGGLFGDLSGSSDDDSDREGKPKESNTRARLSDSDAESRGSLNDLQGIVMANPDEIDEDEKAKEHVHDTEMVTGRVTLEYAADPPHFVRMPNFLSVATHPFDPQHYEEDEDDEQAKLDDEGRTRLKLRVENTLRWRVRKDENGKEIRESNAKIVKWDDGTMSLYLGNEIFEVSLVPLNSNNLPHLYVKQPTLMSAQAVLTHRMTFRPHSTDSQTHRKVTLNMADRSRKNAQVKVMDDVGQNPEITRRENARKEEESLRAHIRRTQMVRNNFKVRGPRYAGQYSDDEDMPTSSRKGKKKEAPIIGASSESEDDHADTTKKSGSDSDSDEEYRKRKQQQKKQIVTSDEESD | not soluble
3 | MGSDKIHHHHHHMLRYHMQGFSGYGVQYSPFFDNRLAVAAGSNFGLVGNGKLFILEIDRSGRIVEVNSFLTQDCLFDLAWNESHENQVLVAQGDGTLRLFDTTFKEFPIAIFKEHEREVFSCNWNLVNRQNFLSSSWDGSIKIWSPLRKQSLMTLTPRPLEITKMVDPLNAIILKKKSFTGISKNRNCVYQAQFSPHDQNLVLSCSGNSYASLFDIRLPSGKNQNNFLVHSGLEALTCDFNKYRPYVVATGGVDNAIRIWDIRMLNKNESATIKRTVPGQLHNSSCINEIPNAHGLAIRKVTWSPHHSNILMSASYDMTCRIWRDLSNDGAKETYKTNSTDATKGSIFNFTQHSEFVFGADWSLWGKPGYVASTAWDGNLFVWNGLG | not soluble
4 | MQAIQNTQEIRRQADLTKAQWWLQQLCETDRMIVGRKRRDVQKLIHRLLSEPKGTSVPKSSPVNRLFPHPLSFELDPKWPAMDSFYNRISAAMRTIAPKKTASQQVVISCKQLKPAKLDMKTLRQVMEHELAELGDEKLQRMVCSFCYRAQPTHRLYTIEDVIKCQECWRGPFPSRTIFDALITDVAEKWAEKVAKRVECLYGNWDEKLTPMVRMLQNNVLLSEDIAALLRTCTDPHEFKEACEVIIITTIVFYLEYVDFRRSCEALMAIKPTVTYGQLFEIFQIYFPNRAKGIKTGDFL | not soluble
5 | MGSDKIHHHHHHMFQPLLDAFIESASIEKMVSKSPPPPLKIAVANWWGDEEIKEFKKSVLYFILSQRYAITLHQNPNESSDLVFSNPLGAARKILSYQNTKRVFYTGENESPNFNLFDYAIGFDELDFNDRYLRMPLYYAHLHYEAELVNDTTAPYKLKDNSLYALKKPSHHFKENHPNLCAVVNDESDLLKRGFASFVASNANAPMRNAFYDALNSIEPVTGGGSVRNTLGYKVGNKSEFLSQYKFNLCFENSQGYGYVTEKILDAYFSHTIPIYWGSPSVAKDFNPKSFVNVHDFNNFDEAIDYIKYLHTHPNAYLDMLYENPLNTLDGKAYFYQDLSFKKILDFFKTILENDTIYHNNPFIFYRDLHEPLISIDDLRVNYDDLRVNYDDLRVNYDDLRVNYDDLRVNYDDLRVNYDDLRVNYDDLRVNYDDLRVNYDDLRVNYDRLLQNASPLLELSQNTTFKIYRKAYQKSLPLLRTIRRWVKK | not soluble
6 | MSSSNWEKLKKKLDSAKSGRVEKKHSNEKKYLKSVKGKNNENENSYIVDKKRMNELKKFAKENDIPESQVLDAYGVDASKLTRKTNLETLGKYIAMDCEMVGVADDMSVLARVSIVNYHGHVVYDTYVRPKEKVTDWRTWVSGVKSFHMRDAPSFEKVQAEVAKILDNRVLVGHAVHNDLKVLLLSHPRRMIRDTSRFSGYRKLAKGRTPGLKKLAEVILGRDIQSGQHSSVQDAQATMELYKKVKKEMDEVAFKGLSKS | soluble
7 | MRLPPMLDNLTRMARMNDNQHRFALSDLYRFVNGPWLDSHVIPEDRGVDGIFHGLRDRAEEDVHTIVMDSADSLAGKLYASFMDTEGIESAGVAALDKDLTLIDVATVPEFVQALGALDRVGVGGPVGFWVAKDSAGDKSVAYIMQSGITLPDEAYYREESHAQTREAYQKHVEKMLGFLAPEQLGTTPIDAATRILALETDIAAAHWDVVQRRDAVKTFNPTEMAELPPQVAALLRAAGLPEHRVISMMPSYFEALESLLTPQRLDDWKLLTTWRILHSRAGVLTPEISRADFEFFGTTLSGATQQRDRWKRALGLAESFVGEEIGALYVERHFPESSKKDMLSLVSYLIEAYRERISGLSWMTPETRERALDKLDKFNAKIGYPDSWRSYAGLEFSAKGTDLL | not soluble
8 | GPGSMNRLFGRKKDTQKPTLEDASVKIGARCDAVDARVSKIDAELAKLKECIQRTTGATQQRHKQRAIQLLQQKRLYQNQQDVLMQQQFNIDQLQFTTESVKDAKLQVDAMKDATKTLKREFKKMSVADVEKLQDELLNLYEDAQYVQEAMGRSYDVPDSIDEDEMLGELEALAMQSGNEADSSYLSDALAMPSGRLPDLMSNTQQQQETETPDPYKLETQLGL | not soluble
9 | MKRHFETTRRIVIKVGTSSLVQTSGKINLSKIDHLAFVISSLMNRGMEVILVSSGAMGFGLDILKMDKRPQEISQQQAVSSVGQVAMMSLYSQIFSHYQTHVSQILLTRDVVVFPESLQNVTNSFESLLSMGILPIVNENDAVSVDEMDHKTKFGDNDRLSAVVAKITKADLLIMLSDIDGLFDKNPNIYDDAVLRSHVSEITDDIIKSAGGAGSKFGTGGMLSKIKSAQMVFDNNGQMILMNGANPRDILKVLDGHNIGTYFAQGKLEHHHHHH | not soluble
10 | MWAAYFEKTLVYKQNVKKSRKSKKEDPAEAEKLMKQALEEYLPKYSELLPIILARGTVTLFKNLALTAKDAMTPKEVEPEEPTEEELAQQRRQQRAAAAPQQLEFKFEVAQGMKAVSTNDPEMEKKYAAENEVVAQKQSGATWTPDELASLVRLSTEKYPAGTPNRWEQMGRVLNRSAEDVIAMAGKMKQMKQEDYTKLLMTTIQQSVPVEEKSEDDWSQAEQKAFETALQKYPKGTDERWERISEEIGSKTKKQVMVRFKQLAEMIRKKKTNDT | not soluble
11 | MSFRIEEKIVLTASDMARLQADLQARGMVPLYPARLIRSVYFDTSGLQMFSDSEEGVLPRKKVRLRRYPEQADAGAVLETKISSVEGRFKTALPVAPETERRLLRQGHFDRDYGTLQAMVAVSYRRAYYSLDGLRITFDRDIAYARPDGQTARREAWTVCELKAPAEAPLDALHHILPVPRRRFSKFCNGVSAVIARALEHHHHHH | not soluble
12 | MGSDKIHHHHHHMRDSVFKLSYFLSANEKFHIARVNITSSQDLSLHSHDYAEILWVEKGTGIHHVNGHQFRLSPGDLIMVRPKDRHTFSSSGKGIVIVNVAFPVETLDYFRQRYFEWSNLYFWTTGMFPFQMRLSRDIVKRLSSRAEEAMKYGRSNIQLDSLLLFIFRQITANEKVEDSSEIPVWLFNAIQKFNSPEFFIQGIAGFVTLCDRNIDYVNRIVKLHFHKSLTDLINEFKMQYATTQLSITSMPIKEICTNCGFRNLGHFYKIFRSVYNQTPYEYRRINQLIV | not soluble
13 | MKTSIIILTCNNLRYSRRCIESIKKYTEKEAYEIIVVDNNSNDGTRNWLSKQKAIKKIYNNVNVGFPRGCNMGIKVACGSEVLLLNNDVVVTHNWLNNLRNCLYSSYEIGAVGPISNNCSNGQKINVRYDSIEDMHRFSKKYNISNKKKWTEVKRLIGFCFLIKRNVIRKVGLFDERFTPGNFEDDDYCIRMRKIGFRLMLCKDTFVHHYGSVSFKNTQYLKLLEVNKSKLEKKWGKSYDKLVLEHHHHHH | not soluble
14 | VTVRMDPQRFDELVSDALDLIPPELADAMDNVVVLVANRHPQHENLLGQYEGVALTERGSDYAGSLPDAITIYREALLDACDSEDEVVDQVAITVIHEVAHHFGIDDERLDQLGWRDEPAPGRGNPDLSAPDAMNGP | soluble
15 | MSLTTRVIALDLDGTLLTPKKTLLPSSIEALARAREAGYQLIIVTGRHHVAIHPFYQALALDTPAICCNGTYLYDYHAKTVLEADPMPVIKALQLIEMLNEHHIHGLMYVDDAMVYEHPTGHVIRTSNWAQTLPPEQRPTFTQVASLAETAQQVNAVWKFALTHDDLPQLQHFGKHVEHELGLECEWSWHDQVDIARGGNSKGKRLTKWVEAQGWSMENVVAFGDNFNDISMLEAAGTGVAMGNADDAVKARANIVIGDNTTDSIAQFIYSHLIEGHHHHHH | soluble
16 | MRIVVTRPQRSGERTAAKLEALGHAPVLLPLFHPIHHGERATSALSDPAGAIAVTSAEALRALATCEEQLAPYLSKPLFAVGGATAEAAQETGFEQIFTASGDALGLTVLVKQHRAFLTEEEPLLYLAGRPRGSVFEEGLAAAGIPFRTVDCYEMLPSDISENTLETTLLDTTADMVLLYSSEAARAFFHHVSADKYVTALAATKFICISRNVLFLVPEIFRANAKAAEEPSEAAMFELLHHNSGT | not soluble
17 | STYPPTPPNVTRLSDESVMLRWMVPRNDGLPIVIFKVQYRMVGKRKNWQTTNDNIPYGKPKWNSELGKSFTASVTDLKPQHTYRFRILAVYSNNDNKESNTSAKFYLQPGAALDPMPVPELLEIEEYSETAVVLHWSLASDADEHLITGYYAYYRPSSSAGEYFKATIEGAHARSFKIAPLETATMYEFKLQSFSAASASEFSALKQGRTQRPK | soluble
18 | MLRLEEDEPSPGICDQLHEIVRSIGLLCYVACPPIPSEIIRKLAFHPPDKGATYRIELKSDPEKDLESVRDCHDEPVQLVVRDRVHPEVKVFSVTTSEDSHLVCVKCSPNCYSKNPEVANQVVLFCQSSSADLGSFLQPNSMNFSTFANLFETDVYAFDYSGYGFSSGTQSEKNMYADVRAVYEHILKTRPDKKIVVIGYSIGTTAAVDLAASNPDRLVGVVLIAPLTSALRMFCNNPDKETTCIDKICHINTRVLICHGDHDQRIPMTHGMALYENLKNPVPPLIVHGANHHSIISGEYIEVFTRIASFMRNETLLSCRANQIESSSSKKFKHE | not soluble
19 | MTDQLRLMAVHAHPDDESSKGAATMAKYVSEGVDVLVVTCTGGERGSILNPKLQGDAYIEENIHEVRRKEMDEAREILGVGQEWLGFVDSGLPEGDPLPPLPEGCFALEDVDKAAGELVRKIRSFRPQVITTYDENGGYPHPDHIMTHKITMVAFEGAADTEKYPESEYGTAYQPLKVYYNQGFNRPRTEALHHALLDRGLESPYEDWLKRWSEFERKERTLTTHVPCADFFEIRDKALIAHATQIDPEGGWFRVPMEIQKEVWPTEEYELAKSLVETSLPEDDLFAGIRDNALEHHHHHH | not soluble
20 | MGSDKIHHHHHHMSGQCLYILRNRTNWHVNRLRVFTPSQEGGASVCKRTTRRAADTIPRNIDSCCDRVLRNGILRRSRAAPTNRDTNMLHQNNGFHANALLGSLADDSLRALAPHLELVKIKSAQLLCETDEPMRHLYFPTTAMMSVLYLMEDGAMVEVAAVGNEGVVGVSTLADYGCGGASGRIEVRSGGYAYRVSTQVFRREFDRSLDTFQLMLRYWQAAMTQIARGALCNRHHSVSEQLSRWLLLAHDRVEGDELAVTQQTIANMLGVRREGITEAAGKLQEAGLIRQRRGHITVLDREGLEARACECYGVIRGEFNRLILEARRDAHAPQPIPAEGRPLRVAGYHGAVRSAA | not soluble
